{"source": "paper PMC7191063", "origin": "cited, not measured here", "key": {"trypsin (Bos taurus) [1]": {"target": "trypsin (Bos taurus) (UniProt P00760)", "sequence (P00760 149-246)": "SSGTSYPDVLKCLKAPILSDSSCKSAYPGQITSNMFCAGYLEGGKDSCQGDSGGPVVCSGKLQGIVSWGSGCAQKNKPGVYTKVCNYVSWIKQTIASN"}, "trypsin (Bos taurus) [2]": {"target": "trypsin (Bos taurus) (UniProt P00760)", "remark": "listed apart in the source"}}, "data": [{"substance": "BWI-2c (from UniProt P86794)", "values": [{"measurement": "Ki", "setting": "trypsin (Bos taurus) [1]", "result": 0.174, "unit": "nM"}]}, {"substance": "VhTI (from UniProt P85981)", "values": [{"measurement": "Kd", "setting": "trypsin (Bos taurus) [2]", "result": "< 1", "unit": "nM"}]}]}
